Experimental findings from PMC8053102 are described below.

The data set has as its target T1, PcnR (plasmid copy number repressor, ProQ/FinO family) (Escherichia coli IncI2 plasmid pHNSHP45, UniProt Q9F577 1-198).
T1 sequence: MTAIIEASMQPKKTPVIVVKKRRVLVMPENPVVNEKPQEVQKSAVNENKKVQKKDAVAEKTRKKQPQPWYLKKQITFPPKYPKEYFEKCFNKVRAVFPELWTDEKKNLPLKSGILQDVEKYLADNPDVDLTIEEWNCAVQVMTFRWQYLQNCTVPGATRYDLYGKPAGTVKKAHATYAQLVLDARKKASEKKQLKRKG
The data set is described as follows: EMSA. Background: In EMSA bound probe runs differently from free probe, usually more slowly.

B1: first stem-loop (SL) of repR mRNA, 47 nt (structured_RNA)
RNA: CUGAAGUGGAGUUUAAUUCCAUGAGAAGGAAAUAUCAACUCUUACAG
With B1, the binding result was “binds”.
